Reference: the supplement of paper PMC9112550, “Optimization of the antimicrobial peptide Bac7 by deep mutational scanning” (BMC Biology, 2022)

Tested on: Escherichia coli TOP10
Assay: shrunken log2 fold change of peptide-encoding DNA abundance (4.5 h post-induction vs induction); higher = less antimicrobial activity (less host growth inhibition)
Conditions: time post-induction: 4.5 h; library: site-saturation at positions 5, 18, 19, 20
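Also: peptides expressed intracellularly from a pBAD plasmid library in pooled LB shake-flask culture, induced with 0.3% L-arabinose, DNA abundance read by NGS, three biological replicates, DESeq2 with apeglm shrinkage.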

Row | Sequence | shrunken log2 fold change
1 | RRIRARPPRLPRPRPRPDGMPRP | -0.141
2 | RRIRKRPPRLPRPRPRPSHPPRP | 0.146
3 | RRIRQRPPRLPRPRPRPTGEPRP | 0.0647
4 | RRIRQRPPRLPRPRPRPRGVPRP | -0.0152
5 | RRIRWRPPRLPRPRPRPPDDPRP | 0.847
6 | RRIRSRPPRLPRPRPRPRAYPRP | 0.031
7 | RRIRARPPRLPRPRPRPSHTPRP | 0.162
8 | RRIRWRPPRLPRPRPRPKSNPRP | -0.164
9 | RRIRPRPPRLPRPRPRPDQKPRP | -0.0552
10 | RRIRCRPPRLPRPRPRPLIAPRP | -0.0852
11 | RRIRNRPPRLPRPRPRPSDRPRP | -0.0382
12 | RRIRWRPPRLPRPRPRPLKYPRP | -0.384
13 | RRIRPRPPRLPRPRPRPLLYPRP | -0.348
14 | RRIRWRPPRLPRPRPRPSDSPRP | -0.0671
15 | RRIRKRPPRLPRPRPRPVRMPRP | 0.0401
16 | RRIRCRPPRLPRPRPRPESNPRP | 0.00481
17 | RRIRERPPRLPRPRPRPSETPRP | -0.428
18 | RRIRPRPPRLPRPRPRPWLYPRP | -0.0765
19 | RRIRDRPPRLPRPRPRPPNQPRP | 0.317
20 | RRIRNRPPRLPRPRPRPPKHPRP | 0.157
21 | RRIRGRPPRLPRPRPRPWIYPRP | -0.372
22 | RRIRIRPPRLPRPRPRPVSRPRP | 0.0446
23 | RRIRGRPPRLPRPRPRPDKDPRP | 0.602
24 | RRIRMRPPRLPRPRPRPEAFPRP | 2.91
25 | RRIRVRPPRLPRPRPRPMHPPRP | 0.0843

Row | Sequence | shrunken log2 fold change
26 | RRIRVRPPRLPRPRPRPKSWPRP | 0.224
27 | RRIRHRPPRLPRPRPRPRGNPRP | 0.174
28 | RRIRSRPPRLPRPRPRPNIYPRP | -0.519
29 | RRIRSRPPRLPRPRPRPGGMPRP | 0.446
30 | RRIRMRPPRLPRPRPRPFCIPRP | -0.288
31 | RRIRLRPPRLPRPRPRPQVFPRP | 0.502
32 | RRIRDRPPRLPRPRPRPQTLPRP | 0.0519
33 | RRIRNRPPRLPRPRPRPYKRPRP | -1.27
34 | RRIRFRPPRLPRPRPRPWYYPRP | -0.735
35 | RRIRDRPPRLPRPRPRPALPPRP | 0.328
36 | RRIRDRPPRLPRPRPRPPITPRP | -0.217
37 | RRIRCRPPRLPRPRPRPLITPRP | -0.125
38 | RRIRDRPPRLPRPRPRPNVDPRP | 0.0276
39 | RRIRMRPPRLPRPRPRPENTPRP | 0.427
40 | RRIRTRPPRLPRPRPRPESLPRP | -0.00987
41 | RRIRYRPPRLPRPRPRPWNRPRP | -0.0135
42 | RRIRKRPPRLPRPRPRPFSPPRP | -0.102
43 | RRIRVRPPRLPRPRPRPVEIPRP | -0.0612
44 | RRIRLRPPRLPRPRPRPHDNPRP | -0.526
45 | RRIRKRPPRLPRPRPRPYMQPRP | -0.0263
46 | RRIRERPPRLPRPRPRPLKIPRP | -0.402
47 | RRIRIRPPRLPRPRPRPPGWPRP | 0.527
48 | RRIRSRPPRLPRPRPRPYGQPRP | -0.134
49 | RRIRGRPPRLPRPRPRPDSDPRP | 0.0289
50 | RRIRYRPPRLPRPRPRPKNQPRP | -0.777

Row | Sequence | shrunken log2 fold change
51 | RRIRKRPPRLPRPRPRPIWHPRP | 0.248
52 | RRIRARPPRLPRPRPRPAELPRP | 0.426
53 | RRIRERPPRLPRPRPRPHHFPRP | -0.0117
54 | RRIRFRPPRLPRPRPRPIWVPRP | -0.107
55 | RRIRHRPPRLPRPRPRPLPPPRP | 0.196
56 | RRIRARPPRLPRPRPRPMWHPRP | 0.131
57 | RRIRFRPPRLPRPRPRPEFLPRP | 0.0354
58 | RRIRKRPPRLPRPRPRPIKHPRP | 0.567
59 | RRIRYRPPRLPRPRPRPILIPRP | -0.256
60 | RRIRERPPRLPRPRPRPRQPPRP | 0.273
61 | RRIRYRPPRLPRPRPRPRRMPRP | -0.0427
62 | RRIRVRPPRLPRPRPRPCNYPRP | -0.119
63 | RRIRWRPPRLPRPRPRPPCIPRP | 0.0939
64 | RRIRGRPPRLPRPRPRPDCWPRP | 1.58
65 | RRIRGRPPRLPRPRPRPKTQPRP | 0.929
66 | RRIRDRPPRLPRPRPRPTMMPRP | 0.338
67 | RRIRDRPPRLPRPRPRPPERPRP | 0.0665
68 | RRIRIRPPRLPRPRPRPVCSPRP | -0.174
69 | RRIRVRPPRLPRPRPRPFWTPRP | -0.427
70 | RRIRRRPPRLPRPRPRPWMIPRP | -0.26
71 | RRIRARPPRLPRPRPRPQWEPRP | 0.196
72 | RRIRTRPPRLPRPRPRPFPKPRP | -0.112
73 | RRIRCRPPRLPRPRPRPRLRPRP | 0.925
74 | RRIRFRPPRLPRPRPRPCDKPRP | -0.0972
75 | RRIRERPPRLPRPRPRPRDAPRP | 0.446

Row | Sequence | shrunken log2 fold change
76 | RRIRKRPPRLPRPRPRPWAIPRP | 0.14
77 | RRIRHRPPRLPRPRPRPANNPRP | -0.613
78 | RRIRFRPPRLPRPRPRPMYPPRP | -0.249
79 | RRIRQRPPRLPRPRPRPLDLPRP | -0.276
80 | RRIRFRPPRLPRPRPRPLNHPRP | -0.608
81 | RRIRKRPPRLPRPRPRPMAQPRP | -0.0932
82 | RRIRMRPPRLPRPRPRPRGHPRP | 1.33
83 | RRIRLRPPRLPRPRPRPWVFPRP | 0.163
84 | RRIRGRPPRLPRPRPRPTEIPRP | 0.284
85 | RRIRPRPPRLPRPRPRPLNHPRP | -0.363
86 | RRIRMRPPRLPRPRPRPWPIPRP | -0.00141
87 | RRIRQRPPRLPRPRPRPNRMPRP | 0.00219
88 | RRIRMRPPRLPRPRPRPNMMPRP | -0.0235
89 | RRIRIRPPRLPRPRPRPDCLPRP | 0.0966
90 | RRIRTRPPRLPRPRPRPTRYPRP | 0.228
91 | RRIRARPPRLPRPRPRPEALPRP | 1.71
92 | RRIRIRPPRLPRPRPRPHIYPRP | 0.13
93 | RRIRWRPPRLPRPRPRPMCFPRP | 0.0876
94 | RRIRARPPRLPRPRPRPPYMPRP | -0.467
95 | RRIRSRPPRLPRPRPRPRDIPRP | -0.248
96 | RRIRMRPPRLPRPRPRPDFYPRP | 0.06
97 | RRIRARPPRLPRPRPRPCLAPRP | 0.328
98 | RRIRWRPPRLPRPRPRPWTEPRP | -0.301
99 | RRIRHRPPRLPRPRPRPGYVPRP | -0.211
100 | RRIRARPPRLPRPRPRPFIYPRP | -0.264

Row | Sequence | shrunken log2 fold change
101 | RRIRFRPPRLPRPRPRPWEIPRP | -0.0062
102 | RRIRIRPPRLPRPRPRPWVHPRP | -0.0605
103 | RRIRTRPPRLPRPRPRPHRSPRP | 0.0963
104 | RRIRMRPPRLPRPRPRPKDTPRP | 1.86
105 | RRIRCRPPRLPRPRPRPRMIPRP | 0.306
106 | RRIRYRPPRLPRPRPRPTQYPRP | -0.531
107 | RRIRWRPPRLPRPRPRPQRYPRP | 0.0066
108 | RRIRCRPPRLPRPRPRPDESPRP | 0.153
109 | RRIRFRPPRLPRPRPRPKCQPRP | 0.274
110 | RRIRDRPPRLPRPRPRPPNYPRP | -0.147
111 | RRIRIRPPRLPRPRPRPVERPRP | 0.0257
112 | RRIRLRPPRLPRPRPRPMIAPRP | -0.141
113 | RRIRVRPPRLPRPRPRPYTEPRP | -0.42
114 | RRIRRRPPRLPRPRPRPFLEPRP | 0.0277
115 | RRIRCRPPRLPRPRPRPGHRPRP | -0.0213
116 | RRIRCRPPRLPRPRPRPQLNPRP | -0.188
117 | RRIRVRPPRLPRPRPRPFIMPRP | -0.084
118 | RRIRFRPPRLPRPRPRPRNGPRP | 0.101
119 | RRIRGRPPRLPRPRPRPFVYPRP | 0.077
120 | RRIRGRPPRLPRPRPRPSFQPRP | 0.198
121 | RRIRLRPPRLPRPRPRPENQPRP | -0.0987
122 | RRIRMRPPRLPRPRPRPQQEPRP | 0.137
123 | RRIRGRPPRLPRPRPRPVMYPRP | 0.237
124 | RRIRWRPPRLPRPRPRPAYYPRP | -0.157
125 | RRIRQRPPRLPRPRPRPDSHPRP | -0.065
